What all share (test): Der pI substrate assay with FRET peptides (fluorescence, Km, kcat/Km)
Holding throughout (format): biochemical, house dust mite
Conditions in all cases: other: purified Der pI; peptides SEQ ID Nos. 1-76; pH 8.25

Substrate in data set [1]: CCCC[C@H](NC(=O)[C@H](C)NC(=O)[C@@H](NC(=O)[C@H](CCCCN)NC(=O)c1ccccc1N)C(C)C)C(=O)N[C@@H](CO)C(=O)N[C@@H](Cc1ccc(O)c([N+](=O)[O-])c1)C(=O)N[C@@H](CC(=O)O)C(N)=O
The method, then:
(§1) Using the general techniques described above, the following compounds were prepared and assayed as potential substrates against Der pI purified as described above.
(§2) Each mixture of 20 compounds in the libraries of the apparatus described herein was screened at a concentration of 1.0 μM per compound in an assay against the cysteinyl protease Der pI.
(§3) Plate assays were carried out in 96 well plate format, using 0.1 ug of Der pI per 100 μL assay volume in each well and using 20 μM of the substrate. All assays were performed in Assay Buffer (AB; 50 mM potassium phosphate, pH 8.25 containing 1 mM ethylenediaminetetraacetic acid (EDTA) and 1 mM dithiothreitol (DTT). The Der pI enzyme is pre-activated by addition of DTT and this in incubated at room temperature for 5 min. prior to initiation of the assay. As an example for the screening methodology, each well contains a 5 μL of a 20 μM solution of the test compound in DMSO, 10 μL of a 200 μM aqueous solution of the substrate, 2, and 85 μL of Der pI in AB is added to initiate the reaction. Enzyme activity is monitored by fluorescence using 320 nm for excitation and 420 nm for the emission wavelengths using a Labsystems Fluroskan Ascent machine. Kinetic measurements were carried out using a Hitachi F-4500 Fluorescence Spectrophotometer.

Substrate in data set [2]: CC(C)CC[C@H](NC(=O)[C@H](C)NC(=O)[C@H](Cc1ccc(-c2ccccc2)cc1)NC(=O)c1ccccc1N)C(=O)N[C@@H](CCCCN)C(=O)N[C@@H](Cc1ccc(O)c([N+](=O)[O-])c1)C(=O)N[C@@H](CC(=O)O)C(N)=O
The method, then: as §1, §2, §3

Substrate in data set [3]: CCCC[C@H](NC(=O)[C@H](C)NC(=O)[C@@H](NC(=O)c1ccccc1N)C(C)C)C(=O)N[C@@H](CO)C(=O)N[C@@H](Cc1ccc(O)c([N+](=O)[O-])c1)C(=O)N[C@@H](CC(=O)O)C(N)=O
The method, then: as §1, §2, §3

Substrate in data set [4]: CC(C)[C@H](NC(=O)c1ccccc1N)C(=O)N[C@@H](C)C(=O)N[C@@H](CC1CCCCC1)C(=O)N[C@@H](CO)C(=O)N[C@@H](Cc1ccc(O)c([N+](=O)[O-])c1)C(=O)N[C@@H](CC(=O)O)C(N)=O
As to the method: as §1, §2, §3

Substrate in data set [5]: CCCC[C@H](NC(=O)[C@H](C)NC(=O)[C@@H](NC(=O)[C@H](CCC(=O)O)NC(=O)c1ccccc1N)C(C)C)C(=O)N[C@@H](CO)C(=O)N[C@@H](Cc1ccc(O)c([N+](=O)[O-])c1)C(=O)N[C@@H](CC(=O)O)C(N)=O
As to the method:
as §1, §2, §3

Substrate in data set [6]: CC(C)CC[C@H](NC(=O)[C@H](C)NC(=O)[C@H](Cc1ccc(-c2ccccc2)cc1)NC(=O)c1ccccc1N)C(=O)N[C@@H](CC(=O)O)C(=O)N[C@@H](Cc1ccc(O)c([N+](=O)[O-])c1)C(=O)N[C@@H](CC(=O)O)C(N)=O
The method, then: as §1, §2, §3

Substrate in data set [7]: CC(C)CC[C@H](NC(=O)[C@H](C)NC(=O)[C@H](Cc1ccc(-c2ccccc2)cc1)NC(=O)c1ccccc1N)C(=O)N[C@@H](CO)C(=O)N[C@@H](Cc1ccc(O)c([N+](=O)[O-])c1)C(=O)N[C@@H](CC(=O)O)C(N)=O
As to the method:
as §1, §2, §3

Substrate in data set [8]: CC(C)CC[C@H](NC(=O)[C@H](C)NC(=O)[C@H](CC1CCCCC1)NC(=O)c1ccccc1N)C(=O)N[C@@H](CO)C(=O)N[C@@H](Cc1ccc(O)c([N+](=O)[O-])c1)C(=O)N[C@@H](CC(=O)O)C(N)=O
As to the method: as §1, §2, §3

Substrate in data set [9]: CC(C)CC[C@H](NC(=O)[C@H](C)NC(=O)[C@@H](NC(=O)c1ccccc1N)C(C)C)C(=O)N[C@@H](CO)C(=O)N[C@@H](Cc1ccc(O)c([N+](=O)[O-])c1)C(=O)N[C@@H](CC(=O)O)C(N)=O
The method, then:
as §1, §2, §3

Substrate in data set [10]: CC(C)[C@H](NC(=O)c1ccccc1N)C(=O)N[C@@H](C)C(=O)N[C@@H](CCC(N)=O)C(=O)N[C@@H](CO)C(=O)N[C@@H](Cc1ccc(O)c([N+](=O)[O-])c1)C(=O)N[C@@H](CC(=O)O)C(N)=O
As to the method:
as §1, §2, §3

Substrate in data set [11]: CCCC[C@H](NC(=O)[C@H](C)NC(=O)[C@@H](NC(=O)[C@H](Cc1cccc2ccccc12)NC(=O)c1ccccc1N)C(C)C)C(=O)N[C@@H](CO)C(=O)N[C@@H](Cc1ccc(O)c([N+](=O)[O-])c1)C(=O)N[C@@H](CC(=O)O)C(N)=O
The method, then:
as §1, §2, §3

Substrate in data set [12]: CC(C)[C@H](NC(=O)c1ccccc1N)C(=O)N[C@@H](C)C(=O)N[C@@H](Cc1cccnc1)C(=O)N[C@@H](CO)C(=O)N[C@@H](Cc1ccc(O)c([N+](=O)[O-])c1)C(=O)N[C@@H](CC(=O)O)C(N)=O
As to the method: as §1, §2, §3

B1: Der pI (Dermatophagoides pteronyssinus) (protein)
chain: TNACSINGNAPAEIDLRQMRTVTPIRMQGGCGSCWAFSGVAATESAYLAYRNQSLDLAEQELVDCASQHGCHGDTIPRGIEYIQHNGVVQESYYRYVAREQSCRRPNAQRFGISNYCQIYPPNVNKIREALAQTHSAIAVIIGIKDLDAFRHYDGRTIIQRDNGYQPNYHAVNIVGYSNAQGVDYWIVRNSWDTNWGDNGYGYFAANIDLMMIEEYPYVVIL
notes: tissue SmithKline-Beecham, U.K (crude mite extract); host or cells: crude house dust mite extract
For the protein B1, the Km (as a rule, the concentration of substrate that gives half-maximal velocity) in data set [1] was determined as 15 µM; in data set [2] it was 2 µM; in [3], 12 µM; in [4], 5 µM; in [5], 20 µM; in data set [6] it was 5.0 µM. The Km in data set [7] was 2.5 µM; in [8], 9 µM; in data set [9], 4 µM; in [10], 6 µM; in data set [11], 17 µM; in data set [12], 10 µM.

Source of the values: patent publication US6528275B1, “Substrates and inhibitors of proteolytic enzymes” (Peptide Therapeutics Limited, priority 1996, dated 2003).
